Reference: patent US20150030595A1 (ANTIBODY AND RECEPTOR THERAPEUTICS, published 2015)
One block for each binder: values may come before it.

B1: ACVR2B-Fc fusion protein (Fc fusion, not shown: a dimerising Fc or GST; small tags and cut ends)
chain: SGRGEAETRECIYYNANWELERTNQSGLERCEGEQDKRLHCYASWRNSSGTIELVKKGCWLDDFNCYDRQECVATEENPQVYFCCCEGNFCNERFTHLPEAGGPEVTYEPPPTAPTLLT
notes: also called water-soluble ACVR2B
B3: DLK1-Fc fusion protein (Fc fusion, not shown: a dimerising Fc or GST)
chain: AECFPACNPQNGFCEDDNVCRCQPGWQGPLCDQCVTSPGCLHGLCGEPGQCICTDGWDGELCDRDVRACSSAPCANNGTCVSLDDGLYECSCAPGYSGKDCQKKDGPCVINGSPCQHGGTCVDDEGRASHASCLCPPGFSGNFCEIVANSCTPNPCENDGVCTDIGGDFRCRCPAGFIDKTCSRPVTNCASSPCQNGGTCLQHTQVSYECLCKPEFTGLTCVKKRALSPQQVTRLPSGYGLAYRLTPGVHELPVQQPEHRILKVSMKELNKKTPLLTEG
notes: also called DLK-Fc

Columns and labels:
[1] = target: T1, EGF5-6-Fc (DLK1 deletion mutant without the 1st to 4th EGF-like repeat domains) (human, UniProt P80370 170-302); test: SPR (ProteOn XPR36), ACVR2B-Fc coated on the chip, Fc channel as reference
T1 construct: also called 5M-Fc; not shown: human antibody Fc region of the pYK602-Fc vector and any SfiI-junction residues
T1 sequence: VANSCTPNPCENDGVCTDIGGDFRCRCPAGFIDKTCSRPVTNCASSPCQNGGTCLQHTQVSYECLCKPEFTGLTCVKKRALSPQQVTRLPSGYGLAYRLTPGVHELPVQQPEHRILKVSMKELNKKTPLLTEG
Method: (§1) This experiment was performed using a ProteOn XPR36 instrument (Bio-Rad). First, a sensor chip (GLC) was activated by reacting 0.1 M EDC and 0.025 M sulfo-NHS (Bio-Rad) for 60 seconds. […] The coating procedure was completed by allowing 1 M ethanolamine-HCl) (pH 8.5) to flow at the coated chip for 200 seconds. To test the bound proteins, the chip was rotated at an angle of 90°, and stabilized by allowing DPBST (PBS with 0.005% Tween 20) to flow on the chip for 30 minutes.

DLK1-Fc fusion protein = target: B3; test: SPR (ProteOn XPR36)
ACVR2B-Fc fusion protein [2] = target: B1; test: SPR (ProteOn XPR36), ACVR2B-Fc coated, in the presence of B09
[3] = target: T2, C-terminally active myostatin (R&D systems) (UniProt O14793 267-375, limits assumed); test: ELISA on coated myostatin, one site binding (hyperbola) fit
T2 construct: mature
T2 sequence (looked up): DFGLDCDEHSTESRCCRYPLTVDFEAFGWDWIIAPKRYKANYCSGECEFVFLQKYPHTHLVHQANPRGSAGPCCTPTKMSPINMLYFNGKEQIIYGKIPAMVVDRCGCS
Method: An immunoplate was coated overnight with 1 μg/ml of C-terminally active myostatin (R&D systems) at 4° C., washed three times with 0.05% PBST Tween 20, and then blocked with 4% skim milk/0.05% PBST Tween 20 at room temperature for 30 minutes. […] Finally, when the reaction was blocked with 2.5 M H₂SO₄, the optical densities were measured and analyzed at 420 nm.
Based on the experiment, a KD value was also determined by analyzing one site binding (hyperbola) using a GraphPad Reism 4 program.

ACVR2B-Fc fusion protein [4] = target: B1; test: SPR (ProteOn XPR36), ACVR2B-Fc coated
Method: as §1

[5] = target: T2, C-terminally active myostatin (R&D …); test: ELISA, coating 1 ug/ml myostatin, binding 10 nM, anti-human Fc HRP
ACVR2B-Fc fusion protein [6] = target: B1; test: SPR (ProteOn XPR36), ACVR2B-Fc coated on the chip, Fc channel as reference
Method: as §1

[7] = target: T2, C-terminally active myostatin (R&D …); test: ELISA on coated myostatin (1 ug/ml), Fc-HRP

Binder: B1
binding result [1]: binds

Binder: B3
Kd (ACVR2B-Fc fusion protein [2]): 0.407 nM
koff (ACVR2B-Fc fusion protein [2]): 0.000255 s⁻¹
kon (ACVR2B-Fc fusion protein [2]): 626000 M⁻¹ s⁻¹
Kd [3]: 22.8 nM
Kd (ACVR2B-Fc fusion protein [4]): 1.31 nM
koff (ACVR2B-Fc fusion protein [4]): 0.000434 s⁻¹
kon (ACVR2B-Fc fusion protein [4]): 331000 M⁻¹ s⁻¹

B4: JM-Fc (juxtamembrane region of DLK1, all six EGF-like repeat domains deleted) (Fc fusion)
chain: KKRALSPQQVTRLPSGYGLAYRLTPGVHELPVQQPEHRILKVSMKELNKKTPLLTEG
notes: also called juxtamembrane region (JM); not shown: human antibody Fc of the pYK602-Fc vector and the SfiI junction residues between JM and Fc
binding result [5]: binds
binding result (ACVR2B-Fc fusion protein [6]): no binding

The next lines start with the values.

Kd (DLK1-Fc fusion protein): 0.0109 nM
koff (DLK1-Fc fusion protein): 6.49e-05 s⁻¹
kon (DLK1-Fc fusion protein): 3.41e+06 M⁻¹ s⁻¹
B2: human antibody B09 (full-length IgG) (antibody, V domains shown)
VH: QMQLVESGGRLVRPGGSLRLSCAASGFPFTSYAMNWVRQTPGKGLEWVSTITATSGKTYYADSVKGRFTISRDNSRNTLFLQMNSLRAEDTAVYYCVRGESCSGGACSDFDYWGQGALVTVSS
VL: QLVLTQPASVSGSPGQSVTISCTGTSSDIGRYNRVSWYQHHPGKAPKLILNDVTTRPSGFSNRFSGSKSGNTASLTISGLQAEDEADYSCGSYAGSYTYVFGTGTKVTVL
notes: Converted into full-length IgG with pNATAB H and pNATAB L vectors; also called B09 antibody; DLK1 antibody B09

binding result [7]: no binding (tested: 1 nM)
B5: ACVR1A-Fc (Fc fusion, UniProt Q04771 21-124, looked up)
chain: MEDEKPKVNPKLYMCVCEGLSCGNEDHCEGQQCFSSLSINDGFHVYQKGCFQVYEQGKMTCKTPPSPGQAVECCQGDWCNRNITAQLPTKGKSFPGTQNFHLEV
notes: Control; origin not described; not shown: Fc; not described
